Assay results as given in patent publication US20210363269A1 (ALX ONCOLOGY, published 2021).
Substitutions are numbered along the chain they refer to.

B1: S16 (scFv, V domains shown)
VH: DVQLVESGGGVVRPGESLRLSCAVSGFRFSSYAMSWVRQAPGKGLEWVSGISSGGDTYYVDSVKGRFTISRDNSKNTLYLQVNSLTAEDTAIYYCARETWNHLFDYWGLGTLVTVSS
VL: ALTQPASVSANLGETVKITCSGGDSSSHYYGWYQQKSPGSAPVTVIYSDDERPSDIPSRFSGSASGSTATLTITGVRVEDEAIYYCGAYDGSTYANTFGAGTTLTVL
notes: also called clone 16
B2: S30 (scFv, V domains shown)
VH: B1 VH with A23E, V24A, R28T, Y32D, G55S, D56S, V60G, D61G, V82M, I92V
VL: ALTQPASVSASPGETVEITCSGGSDSSYYYGWYQQKSPGSAPVTVIYSDNKRPSNIPSRFSGSASGSTATLTITGVRVEDEAVYYCGGYDYSTYTNPFGAGTTLTVL
notes: also called clone 30
B3: S27 (scFv, V domains shown)
VH: B1 VH
VL: B1 VL with N11D
notes: also called clone 27; scFv-Fc form of AB27
B4: S29 (scFv, V domains shown)
VH: B1 VH with G54D, G55S, T57A, I92V, L112M
VL: B1 VL with Y33F, V45L, Y85F, A95T
notes: also called clone 29
B5: S55 (scFv, V domains shown)
VH: B1 VH
VL: B1 VL with K17E
notes: also called clone 55
B6: S74 (scFv, V domains shown)
VH: DVQLVESGGGVVRPGESLRLSCAASGFTFSSNAMSWVRQAPGKGLEWLAGISAGDSDTYYPASVKGRFTISRDNPKNTLYLQMNTLTAEDTAVYYCARETWNHLFDYWGLGTLVTVSS
VL: ALTQPASVSANPGETVKIACSGGSYYSYYYGWYQQKSPGSALVTVIYSDDKRPSGIPSRFSGSASGSTATLTITGVRAEDEAVYYCGGYDYSSYTNDFGAGTTLTVL
notes: also called clone 74
B7: S26 (scFv, V domains shown)
VH: DVQLVESGGGVVRPGESLRLSCAASGFTFSTYAMSWVRQAPGKGLEWVSGISASGSGTYYGDSVKGRFTMSRDNSKNTLYLQMNSLTAEDTAVYYCARETWNHLFDYWGLGTLVTVSS
VL: ALTQPASVSANLGGTVEITCSGGSSSYYGWYQQKSPGSAPVTVIYSDNQRPSDIPSRFSGSASDSTATLTITGVQVEDEAIYYCGGYDSSTYANTFGAGTTLTVL
notes: also called clone 26
B8: S136 (scFv, V domains shown)
VH: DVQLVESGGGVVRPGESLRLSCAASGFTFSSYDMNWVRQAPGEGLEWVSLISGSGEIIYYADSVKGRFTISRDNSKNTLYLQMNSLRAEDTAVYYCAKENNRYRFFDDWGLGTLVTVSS
VL: ETVLTQSPGTLTLSPGERATLTCRASQSVYTYLAWYQEKPGQAPRLLIYGASSRATGIPDRFSGSGSGTEFTLTISSLQSEDFAVYYCQQYYDRPPLTFGGGTKVEIK
notes: also called scFv-Fc form of AB136
B9: S189 (scFv, V domains shown)
VH: DVQLVESGGGVVRPGESLRLSCAASGFTFSSSDMNWVRQAPGEGLEWVSLISGSGEITYYADSVKGRFTISRDNSKNTLYLQMNSLRAEDTAIYYCAKENNMYRFFDYWGLGTLVTVSS
VL: B8 VL with T12S, T22S, E38Q, A43P, Y49H, G50A, S52R, S53N, T56A
B10: S184 (scFv, V domains shown)
VH: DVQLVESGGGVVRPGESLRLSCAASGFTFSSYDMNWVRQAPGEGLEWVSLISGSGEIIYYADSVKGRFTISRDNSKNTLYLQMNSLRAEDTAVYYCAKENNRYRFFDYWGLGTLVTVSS
VL: B8 VL with T12S, T22N, G50D, Q79E
B11: S193 (scFv, V domains shown)
VH: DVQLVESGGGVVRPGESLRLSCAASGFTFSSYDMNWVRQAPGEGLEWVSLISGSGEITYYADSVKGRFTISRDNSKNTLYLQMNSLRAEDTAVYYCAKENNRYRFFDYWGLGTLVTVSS
VL: B8 VL with T12S, T22S, G50A, S53T
notes: scFv-Fc format (VL-linker-VH on human IgG1 Fc)
B12: S175 (scFv, V domains shown)
VH: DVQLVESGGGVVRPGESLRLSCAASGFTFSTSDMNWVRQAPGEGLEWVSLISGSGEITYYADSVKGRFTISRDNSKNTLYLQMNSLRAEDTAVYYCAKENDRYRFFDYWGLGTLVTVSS
VL: B8 VL with T10I, T12S, T56A
B13: S178 (scFv, V domains shown)
VH: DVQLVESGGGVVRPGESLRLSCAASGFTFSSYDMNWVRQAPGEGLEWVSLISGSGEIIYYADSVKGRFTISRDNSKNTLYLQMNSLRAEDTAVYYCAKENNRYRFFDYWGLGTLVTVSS
VL: B8 VL with T22S, I58V
B14: S180 (scFv, V domains shown)
VH: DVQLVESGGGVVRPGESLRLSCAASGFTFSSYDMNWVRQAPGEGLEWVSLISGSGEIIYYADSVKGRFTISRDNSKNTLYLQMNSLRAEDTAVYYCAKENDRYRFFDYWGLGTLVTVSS
VL: B8 VL
notes: also called clone 180
B15: S190 (scFv, V domains shown)
VH: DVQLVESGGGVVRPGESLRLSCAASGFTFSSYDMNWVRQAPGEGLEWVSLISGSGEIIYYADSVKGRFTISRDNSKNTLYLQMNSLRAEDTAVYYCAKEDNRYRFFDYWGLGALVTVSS
VL: B8 VL with A19T
notes: also called clone 190
B16: S177 (scFv, V domains shown)
VH: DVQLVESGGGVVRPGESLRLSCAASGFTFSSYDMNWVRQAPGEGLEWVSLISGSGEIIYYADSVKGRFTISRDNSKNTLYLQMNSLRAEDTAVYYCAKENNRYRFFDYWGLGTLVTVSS
VL: B8 VL with E1K, T12S, S26D, K39R, G50D
B17: S185 (scFv, V domains shown)
VH: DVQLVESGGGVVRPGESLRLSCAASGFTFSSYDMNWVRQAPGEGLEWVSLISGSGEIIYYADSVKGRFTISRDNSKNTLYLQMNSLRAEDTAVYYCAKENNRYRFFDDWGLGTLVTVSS
VL: B8 VL with T12S, T22N, T31S, K39R, S53T, Q79E, E81D

How the values were obtained:
Assay in all cases: SPR, Langmuir fit
[1] = target: T1, NOD mouse SIRP-α D1 domain (mouse (NOD strain))
T1 chain: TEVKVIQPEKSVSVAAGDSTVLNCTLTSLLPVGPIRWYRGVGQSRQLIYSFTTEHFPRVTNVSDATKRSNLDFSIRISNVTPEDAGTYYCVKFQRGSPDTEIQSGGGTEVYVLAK
Procedure, shortened: (§1)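 Pre-filtered culture media supplied the scFv-Fc antibody clones, which were captured by anti-human IgG Fc amine-coupled (about 4000 RU) to a GLC chip on a ProteOn XPR36. SIRP analytes were flowed in PBS pH 7.4 with 0.01% Tween-20 at 25° C. Interspot and buffer-blank responses were subtracted from the data, which were then fitted to a 1:1 Langmuir model. Dissociation rate constants (koff) were derived from this fitting.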

[2] = target: T2, mouse 129 SIRP-α D1 domain (mouse (129 strain), UniProt P97797 32-150)
T2 construct: also called m129
T2 chain: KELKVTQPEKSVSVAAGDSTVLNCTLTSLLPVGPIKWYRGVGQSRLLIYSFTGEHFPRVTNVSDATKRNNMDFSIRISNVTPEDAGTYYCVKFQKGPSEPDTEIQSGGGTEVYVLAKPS
Procedure, shortened: as §1

human SIRPγ isoform 1 = target: T3, human SIRPγ isoform 1 (human, UniProt Q9P1W8 29-147)
T3 construct: also called SIRPg; sirpg
Procedure, shortened: as §1

[3] = target: T4, cynomolgus SIRP-α D1 domain (cyno1) (cynomolgus monkey, UniProt Q5TFQ8 30-148 (human entry), limits assumed)
T4 chain: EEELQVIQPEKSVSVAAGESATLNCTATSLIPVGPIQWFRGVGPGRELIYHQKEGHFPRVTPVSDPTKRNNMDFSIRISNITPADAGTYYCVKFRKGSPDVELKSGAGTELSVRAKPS
Procedure, shortened: as §1

human SIRPβ isoform 1 = target: T5, human SIRPβ isoform 1 (human, UniProt O00241 30-148)
T5 construct: also called SIRPb; sirpb1
Procedure, shortened: as §1

[4] = target: T6, cynomolgus SIRP-α D1 domain (cyno2) (cynomolgus monkey, UniProt Q5TFQ8 30-148 (human entry), limits assumed)
T6 chain: T4 chain with E19D, A27V, T28S, V42A, H51N, Q52L, P62A
Procedure, shortened: as §1

[5] = target: T7, high affinity SIRP-α D1 variant CV1-3
T7 chain: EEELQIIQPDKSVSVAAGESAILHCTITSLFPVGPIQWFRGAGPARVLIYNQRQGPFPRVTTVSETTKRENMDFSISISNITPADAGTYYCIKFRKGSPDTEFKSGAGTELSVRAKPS
Procedure, shortened: as §1

[6] = target: T8, C57BL/6 mouse SIRP-α D1 domain (mouse (C57BL/6 strain), UniProt P97797 32-148)
T8 sequence: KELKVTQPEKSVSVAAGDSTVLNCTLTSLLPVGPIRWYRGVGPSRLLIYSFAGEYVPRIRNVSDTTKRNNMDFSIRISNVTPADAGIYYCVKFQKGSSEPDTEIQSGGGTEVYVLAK
Procedure, shortened: as §1

[7] = target: T9, human SIRP-α v1 D1 domain (human, UniProt P78324 31-149)
T9 construct: also called human v1
Procedure, shortened: as §1

[8] = target: T10, human SIRP-α v2 D1 domain (human)
T10 construct: also called human v2
Procedure, shortened: as §1

T9 sequence (P78324 31-149 limits assumed): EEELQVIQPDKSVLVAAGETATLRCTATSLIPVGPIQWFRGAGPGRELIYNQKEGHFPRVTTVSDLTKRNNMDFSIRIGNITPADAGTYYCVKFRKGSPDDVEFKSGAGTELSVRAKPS
T3 sequence (Q9P1W8 29-147 limits assumed): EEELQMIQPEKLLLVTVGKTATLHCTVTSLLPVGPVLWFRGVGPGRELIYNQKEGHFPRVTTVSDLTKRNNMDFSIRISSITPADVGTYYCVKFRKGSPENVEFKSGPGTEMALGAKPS
T5 sequence (O00241 30-148 limits assumed): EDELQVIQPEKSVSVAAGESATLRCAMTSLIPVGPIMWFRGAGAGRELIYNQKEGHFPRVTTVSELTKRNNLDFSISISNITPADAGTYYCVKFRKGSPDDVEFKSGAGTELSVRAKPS

Row | Binder | koff [1] | koff [2] | koff (human SIRPγ isoform 1) | koff [3] | koff (human SIRPβ isoform 1) | koff [4] | koff [5] | koff [6] | koff [7] | koff [8]
1 | B1 | 0.00128 s⁻¹ | 0.000176 s⁻¹ | 8.17e-05 s⁻¹ | 0.000132 s⁻¹ | 0.000113 s⁻¹ | 0.000138 s⁻¹ | 0.0001 s⁻¹ | 0.00235 s⁻¹ | 6.22e-05 s⁻¹ | 0.000111 s⁻¹
2 | B2 |  | 0.000476 s⁻¹ | 0.000193 s⁻¹ | 0.000335 s⁻¹ | 0.000237 s⁻¹ | 0.000366 s⁻¹ | 0.000142 s⁻¹ | 0.00244 s⁻¹ | 0.000132 s⁻¹ | 0.000188 s⁻¹
3 | B3 | 0.0013 s⁻¹ | 0.000136 s⁻¹ | 9.46e-05 s⁻¹ | 0.000138 s⁻¹ | 8.97e-05 s⁻¹ | 0.000161 s⁻¹ | 8.94e-05 s⁻¹ | 0.00184 s⁻¹ | 5.81e-05 s⁻¹ | 9.97e-05 s⁻¹
4 | B4 |  | 0.00114 s⁻¹ | 0.000216 s⁻¹ | 0.000387 s⁻¹ | 0.000279 s⁻¹ | 0.000369 s⁻¹ | 0.000343 s⁻¹ | 0.00186 s⁻¹ | 9.61e-05 s⁻¹ | 0.000178 s⁻¹
5 | B5 | 0.00119 s⁻¹ | 0.000143 s⁻¹ | 4.69e-05 s⁻¹ | 9.63e-05 s⁻¹ | 6.48e-05 s⁻¹ | 0.000116 s⁻¹ | 6e-05 s⁻¹ | 0.00197 s⁻¹ | 4.18e-05 s⁻¹ | 7.16e-05 s⁻¹
6 | B6 |  | 0.000412 s⁻¹ | 0.000225 s⁻¹ | 0.000337 s⁻¹ | 0.000266 s⁻¹ | 0.00032 s⁻¹ | 0.000166 s⁻¹ | 0.00137 s⁻¹ | 0.000161 s⁻¹ | 0.000278 s⁻¹
7 | B7 | 0.000764 s⁻¹ | 0.00108 s⁻¹ | 8.35e-05 s⁻¹ | 0.000967 s⁻¹ | 0.000129 s⁻¹ | 0.000743 s⁻¹ | 4.74e-05 s⁻¹ |  | 5.81e-05 s⁻¹ | 0.000111 s⁻¹
8 | B8 | 0.000386 s⁻¹ | 0.000459 s⁻¹ |  |  | 0.0036 s⁻¹ | 0.00132 s⁻¹ | 0.00159 s⁻¹ | 0.00478 s⁻¹ | 0.000845 s⁻¹ | 0.00161 s⁻¹
9 | B9 | 0.000504 s⁻¹ | 0.000837 s⁻¹ |  | 0.00331 s⁻¹ | 0.00278 s⁻¹ | 0.00187 s⁻¹ | 0.00228 s⁻¹ | 0.0039 s⁻¹ | 0.00106 s⁻¹ | 0.00281 s⁻¹
10 | B10 | 0.000638 s⁻¹ | 0.000821 s⁻¹ |  | 0.0039 s⁻¹ |  | 0.00221 s⁻¹ | 0.00514 s⁻¹ | 0.00422 s⁻¹ |  | 
11 | B11 | 0.00157 s⁻¹ | 0.00209 s⁻¹ |  |  |  | 0.00428 s⁻¹ |  | 0.00389 s⁻¹ |  | 
12 | B12 | 0.000417 s⁻¹ | 0.000605 s⁻¹ |  | 0.00177 s⁻¹ | 0.00299 s⁻¹ | 0.00107 s⁻¹ | 0.00165 s⁻¹ | 0.0032 s⁻¹ | 0.000839 s⁻¹ | 0.00183 s⁻¹
13 | B13 | 0.000762 s⁻¹ | 0.00112 s⁻¹ |  | 0.00344 s⁻¹ | 0.00473 s⁻¹ | 0.00177 s⁻¹ | 0.00426 s⁻¹ |  | 0.00223 s⁻¹ | 0.00317 s⁻¹
14 | B14 | 0.000576 s⁻¹ | 0.000806 s⁻¹ |  | 0.0025 s⁻¹ | 0.00375 s⁻¹ | 0.00138 s⁻¹ | 0.00307 s⁻¹ | 0.00466 s⁻¹ | 0.0016 s⁻¹ | 0.00227 s⁻¹
15 | B15 | 0.000563 s⁻¹ | 0.000773 s⁻¹ |  | 0.00217 s⁻¹ | 0.00256 s⁻¹ | 0.00124 s⁻¹ | 0.00308 s⁻¹ |  | 0.00156 s⁻¹ | 0.00199 s⁻¹
16 | B16 | 0.000736 s⁻¹ | 0.00104 s⁻¹ |  | 0.00447 s⁻¹ |  | 0.00269 s⁻¹ |  |  |  | 
17 | B17 | 0.000573 s⁻¹ | 0.000717 s⁻¹ |  | 0.00178 s⁻¹ | 0.00385 s⁻¹ | 0.00103 s⁻¹ | 0.00239 s⁻¹ | 0.00514 s⁻¹ | 0.00122 s⁻¹ | 0.00205 s⁻¹
